Numbering of substitutions follows the chain as printed.
Tests used:
Assay in all cases: cAMP activity assay (pCRE β-galactosidase reporter), transfected HEK293T cells
Format in all cases: cell-based
RXFP1 E67A = target: T1, RXFP1 E67A (Homo sapiens, UniProt Q9HBX9, E89A); conditions: construct E67A, ±s.e.m.
T1 construct: cells expressing full-length RXFP1 and mutants; expressed in transfected cells; host or cells: HEK293T
T1 sequence (Q9HBX9 23-757 E89A limits assumed): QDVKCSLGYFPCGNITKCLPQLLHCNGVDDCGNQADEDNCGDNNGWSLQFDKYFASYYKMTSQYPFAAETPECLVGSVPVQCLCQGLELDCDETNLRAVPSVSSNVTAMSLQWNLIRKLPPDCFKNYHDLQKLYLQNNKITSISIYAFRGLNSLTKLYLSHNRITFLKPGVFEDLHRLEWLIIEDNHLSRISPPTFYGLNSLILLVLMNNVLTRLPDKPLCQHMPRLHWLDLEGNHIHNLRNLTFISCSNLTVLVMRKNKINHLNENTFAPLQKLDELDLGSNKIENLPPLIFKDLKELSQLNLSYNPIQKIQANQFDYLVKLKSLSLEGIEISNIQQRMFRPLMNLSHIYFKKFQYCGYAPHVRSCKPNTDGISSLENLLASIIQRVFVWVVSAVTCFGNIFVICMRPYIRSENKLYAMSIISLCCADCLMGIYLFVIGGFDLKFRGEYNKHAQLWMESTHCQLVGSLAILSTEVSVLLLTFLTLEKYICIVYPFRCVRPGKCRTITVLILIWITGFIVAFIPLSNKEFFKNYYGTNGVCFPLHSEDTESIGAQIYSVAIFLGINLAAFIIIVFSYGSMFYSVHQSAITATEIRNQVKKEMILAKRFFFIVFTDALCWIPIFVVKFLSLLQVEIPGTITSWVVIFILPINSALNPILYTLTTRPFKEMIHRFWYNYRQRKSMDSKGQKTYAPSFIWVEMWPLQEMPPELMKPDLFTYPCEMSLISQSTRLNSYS
In short: (§1)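 H2 relaxin dilutions in minimal media with 1% DMSO; 5 μM Forskolin as positive control, media/1% DMSO as negative. After freezing at −80 °C, cells lysed in pH 8.0 phosphate buffers and chlorophenol red-β-D-galactopyranoside added; absorbance read at 570 nm. Responses given as % of 5 μM Forskolin maximum.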

RXFP1 G45A = target: T2, RXFP1 G45A (Homo sapiens, UniProt Q9HBX9, G67A); conditions: construct G45A, ±s.e.m.
T2 construct: transiently transfected human embryonic kidney (HEK) 293T cells expressing full-length RXFP1 and mutants; expressed in transfected cells; host or cells: HEK293T
T2 sequence (Q9HBX9 23-757 G67A limits assumed): T1 sequence (Q9HBX9 23-757 E89A limits assumed) with G45A, A67E
In short: as §1

RXFP1 M60A = target: T3, RXFP1 M60A (Homo sapiens, UniProt Q9HBX9, M82A); conditions: construct M60A, ±s.e.m.
T3 construct: cells expressing full-length RXFP1 and mutants; expressed in transfected cells; host or cells: HEK293T
T3 sequence (Q9HBX9 23-757 M82A limits assumed): T1 sequence (Q9HBX9 23-757 E89A limits assumed) with M60A, A67E
In short: as §1

[1] = percentage of maximum response to 5 μM Forskolin

H2 relaxin: two-chain 6-kDa peptide hormone structurally related to insulin; recombinant human gene-2 H2 relaxin provided by Corthera
H2 relaxin pEC50 (RXFP1 E67A; cAMP reporter): 11.13±0.13 | H2 relaxin Emax (RXFP1 E67A; [1]): 141.74±27.08 (5) % | H2 relaxin pEC50 (RXFP1 G45A; cAMP reporter): 7.48±0.57 (4) | H2 relaxin Emax (RXFP1 G45A; [1]): 135.94±31.68 (4) % | H2 relaxin pEC50 (RXFP1 M60A; cAMP reporter): 11.20±0.03 (4) | H2 relaxin Emax (RXFP1 M60A; [1]): 118.2±6.51 (4) %

Reference: paper PMC4837482, “The complex binding mode of the peptide hormone H2 relaxin to its receptor RXFP1” (Nature Communications, 2016)
